For one experiment, the target named is T1, mouse GDF-15 (mouse, UniProt Q9Z0J7 189-303).
T1 construct: also called mGDF-15
T1 sequence: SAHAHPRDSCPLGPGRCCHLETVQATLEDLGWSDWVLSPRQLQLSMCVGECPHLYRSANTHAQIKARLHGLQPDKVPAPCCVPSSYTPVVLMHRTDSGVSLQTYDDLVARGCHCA
Kind of experiment: HTRF binding assay, biotinylated mouse GDF-15. The text has this: (§1) Supernatants generated from the immunizations with human GDF-15 and purified IgGs were screened to identify IgGs with specific binding to human, cynomolgus, or mouse GDF-15. The HTRF (Homogeneous Time Resolved Fluorescence) assay is based on detection of a measurable FRET signal upon binding of a titration of test antibody to biotinylated human H202D GDF-15 variant, cynomolgus GDF-15 and mouse GDF-15. Europium cryptate (EuK) labelled Streptavidin and anti-human IgG XL665 (Cis Bio) were used as secondary detection reagents serving as energy donor and acceptor respectively. In the absence of test antibody binding, there is no detectable FRET fluorescence. When test antibody binds to GDF-15, the resulting physical proximity between the secondary reagent donor/acceptor pair results in FRET. FRET was measured ratiometrically [665 nm (acceptor)/620 nm (donor)] on an Envision plate reader, and data plotted using PRISM 6® software (Graphpad).

Experiment [1] deals with T2, biotinylated human H202D GDF-15 variant (human, UniProt Q99988 197-308, biotinylated, sites not stated).
T2 construct: also called Human GDF-15 H202D
T2 chain: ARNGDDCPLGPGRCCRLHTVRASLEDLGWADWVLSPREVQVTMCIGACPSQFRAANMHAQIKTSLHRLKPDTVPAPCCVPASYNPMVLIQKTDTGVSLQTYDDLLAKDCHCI
Kind of experiment: HTRF binding assay, biotinylated antigen, titration of antibody.
Source text: as §1

Experiment [2] has as its target T3, biotinylated cynomolgus GDF-15 (cynomolgus, UniProt G7PWZ3 197-308, biotinylated, sites not stated).
T3 construct: also called Cyno GDF-15
T3 sequence: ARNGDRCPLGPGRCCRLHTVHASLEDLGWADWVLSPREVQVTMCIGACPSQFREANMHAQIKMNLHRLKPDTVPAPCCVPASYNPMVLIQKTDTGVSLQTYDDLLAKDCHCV
Described as above.
Source text: as §1

The next experiment concerns the target T4, mature human GDF-15 (human, UniProt Q99988 197-308).
T4 construct: Homodimer; also called hGDF-15; recombinant hu-GDF15
T4 sequence: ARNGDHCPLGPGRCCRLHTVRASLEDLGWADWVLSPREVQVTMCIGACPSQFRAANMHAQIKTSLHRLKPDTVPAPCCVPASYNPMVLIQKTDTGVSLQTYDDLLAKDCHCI
Kind of experiment: HTRF epitope competition; competitor DyLight 650 labelled Antibody A; Europium labelled human GDF-15. The text has this: Antibodies from the immunizations with human GDF-15, in the form of crude supernatants from the immunization or in the form of purified IgGs, were chosen on the basis that they bind and compete with an epitope recognized by a control anti-GDF-15 antibody “Antibody A”. A biochemical epitope competition format was applied using an HTRF epitope competition assay that measured the binding of DyLight 650 labelled Antibody A to Europium labelled human GDF-15 (Prospec). In the absence of Antibody A binding, there is no detectable FRET fluorescence. When Antibody A binds to GDF-15, the resulting physical proximity between the secondary reagent donor/acceptor pair results in FRET. Competition with an antibody that recognizes the same or similar epitope will result in a dose dependent reduction of the FRET signal. FRET was measured ratiometrically [665 nm (acceptor)/620 nm (donor)] on an Envision plate reader, and IC₅₀ values were determined by curve fitting the data to a four parameter logistic equation using PRISM 6® software (Graphpad).
Background: TR-FRET usually uses a lanthanide donor and a delayed reading to cut background.

The target of experiment [3] is T5, mature recombinant human GDF-15 with an N-terminal Flag and His tag, biotinylated (human, UniProt Q99988 197-308, chemically biotinylated with EZ link Sulfo-NHS-LC-Biotin, sites not stated).
T5 construct: not shown: N-terminal Flag and His tags
T5 sequence: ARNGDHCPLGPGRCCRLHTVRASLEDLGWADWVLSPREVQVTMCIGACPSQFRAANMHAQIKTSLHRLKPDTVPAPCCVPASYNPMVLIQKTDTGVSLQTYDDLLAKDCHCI
Description: SPR Biacore 8K, 25 C, biotinylated GDF-15 on streptavidin C1 chip, Fab as analyte. How it is done: (§2) The experiments were carried out using mature recombinant human GDF-15, human GDF-15 H202D variant, mouse GDF-15, and cynomolgus GDF-15 with an N-terminal Flag and His tag. All species were chemically biotinylated using EZ link Sulfo-NHS-LC-Biotin (Thermo).
(§3) Streptavidin was covalently immobilized to a C1 chip surface using standard amine coupling techniques at a concentration of 4 μg/ml in 10 mM Sodium acetate pH 4.5. Recombinant biotinylated GDF-15 species were titrated onto the streptavidin chip surface in HBS-EP+ buffer to enable Fab binding.
(§4) Multiple buffer-only injections were made under the same conditions to allow for double reference subtraction of the final sensorgram sets, which were analyzed using Biacore 8K Evaluation Software. The chip surface was fully regenerated with pulses of 50 mM NaOH.

Experiment [4] deals with T6, mature recombinant human GDF-15 H202D variant with an N-terminal Flag and His tag, biotinylated (human, UniProt Q99988 197-308, chemically biotinylated with EZ link Sulfo-NHS-LC-Biotin, sites not stated).
T6 construct: also called Human H202D; not shown: N-terminal Flag and His tags
T6 chain: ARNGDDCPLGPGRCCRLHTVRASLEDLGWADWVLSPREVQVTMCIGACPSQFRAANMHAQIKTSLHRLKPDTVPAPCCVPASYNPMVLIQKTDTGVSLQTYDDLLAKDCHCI
The description is as above. How it is done:
as §2, §3, §4

The target of experiment [5] is T7, mature recombinant cynomolgus GDF-15 with an N-terminal Flag and His tag, biotinylated (cynomolgus, UniProt G7PWZ3 197-308, chemically biotinylated with EZ link Sulfo-NHS-LC-Biotin, sites not stated).
T7 construct: not shown: N-terminal Flag and His tags
T7 sequence: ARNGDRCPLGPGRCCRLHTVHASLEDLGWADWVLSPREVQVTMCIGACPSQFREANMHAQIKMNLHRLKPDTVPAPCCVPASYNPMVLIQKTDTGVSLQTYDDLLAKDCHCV
The description is as above. As for the experimental part: as §2, §3, §4

Experiment [6] has as its target T8, mature recombinant mouse GDF-15 with Flag and His tags (mouse, UniProt Q9Z0J7 189-303).
T8 construct: also called Flag tagged mouse GDF-15; not shown: FLAG and poly-His tags immediately C-terminal to the furin cleavage site (N-terminal on the mature protein)
T8 sequence: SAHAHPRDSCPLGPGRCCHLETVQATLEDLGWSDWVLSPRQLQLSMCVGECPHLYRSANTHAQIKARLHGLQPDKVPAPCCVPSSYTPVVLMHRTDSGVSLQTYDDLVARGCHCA
Kind of experiment: SPR Biacore 8K, biotinylated mouse GDF-15 on streptavidin C1 chip, Fab as analyte. How it is done:
as §2, §3, §4
Background: In SPR one partner is held on a chip, and binding of the other changes the refractive index at the surface.

We go through two molecules from patent publication US20220281965A1 (AstraZeneca / MedImmune, published 2022).

B1: AB1170002 (antibody, V domains shown)
VH: QVTLKESGPGILQPSQTLSLTCSFSGFSLSTYGMGVGWIRQPSGKGLEWLANIWWNDDKYYNSALKSRLTISKDTSNNQVFLKISSVDTADTVTYYCAQVGYDWFAYWGQGTLVTVSS
VL: EIVLTQSPALMAASPGEKVTITCSVSSSISSSNLHWYQQKSETSPKPWIYGTSNLASGVPVRFSGSGSGTSYSLTISSMEAEDAATYYCQQCSSYPLTFGAGTKLELK
One may read the IC50 as the concentration that inhibits the measured activity by half. As to B1, the binding result is listed as “no binding” in the experiment with mouse GDF-15, “binds” in experiment [1] and “binds” in experiment [2]. Moreover, in the experiment with mature human GDF-15, the IC50 is 6.1 nM.

B2: AB1170247 Fab (Fab, V domains shown)
VH: QVQLVQSGSELKKPGASVKVSCKASGYTFTSYDINWVRQAPGQGLEWIGWIYPRDGISKYNEKFKGRATLTVDTSASTAYMELSSLRSEDTAVYYCAGTYDPAYFDYWGQGTTVTVSS
VL: EIVLTQSPATLSVSPGERATLSCRASQSISYYLHWYQQKPGQAPRLLIKYASQSISGVPDRFSGSGSGTDFTLKISRVEAEDFGVYYCQQSNSWPYTFGGGTKVEIK
notes: Fab of the humanized antibody, expressed as in Spooner et al. 2015
For orientation: Kd means the concentration at which binding is half-saturated. Broadly, the koff is the rate constant with which the complex falls apart. A word on the kon: it is the second-order rate constant of association. With B2, the Kd in experiment [3] stood at 9.24 nM; in experiment [4], 9.5 nM; in experiment [5], 15 nM. Besides, the koff in experiment [3] amounted to 0.0386 s⁻¹; in experiment [4], 0.0385 s⁻¹; in experiment [5] it was 0.0686 s⁻¹. Besides, the kon in experiment [3] was 4.18e+06 M⁻¹ s⁻¹; in experiment [4], 4.06e+06 M⁻¹ s⁻¹; in experiment [5] it was 4.58e+06 M⁻¹ s⁻¹. Also, the binding result in experiment [6] was “no binding”.
